These are literature values, as cited in article PMC10872408 (Structure (London, England : 1993), 2023).

For this series, the target named is Gαi3 (Rattus norvegicus) (UniProt P08753). Conditions: cited from earlier work.
Gαi3 (Rattus norvegicus), sequence (P08753 2-354): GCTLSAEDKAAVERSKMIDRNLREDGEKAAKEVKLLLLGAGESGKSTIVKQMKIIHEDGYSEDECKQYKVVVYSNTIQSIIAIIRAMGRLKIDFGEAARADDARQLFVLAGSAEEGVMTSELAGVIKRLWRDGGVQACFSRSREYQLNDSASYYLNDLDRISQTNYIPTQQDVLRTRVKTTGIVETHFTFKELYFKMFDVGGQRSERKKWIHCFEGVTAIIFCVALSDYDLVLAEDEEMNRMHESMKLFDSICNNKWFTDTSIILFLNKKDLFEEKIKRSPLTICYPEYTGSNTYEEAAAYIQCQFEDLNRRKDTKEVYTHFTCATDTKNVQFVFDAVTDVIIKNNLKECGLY

GINIP, sequence (Q9UPV7 2-400): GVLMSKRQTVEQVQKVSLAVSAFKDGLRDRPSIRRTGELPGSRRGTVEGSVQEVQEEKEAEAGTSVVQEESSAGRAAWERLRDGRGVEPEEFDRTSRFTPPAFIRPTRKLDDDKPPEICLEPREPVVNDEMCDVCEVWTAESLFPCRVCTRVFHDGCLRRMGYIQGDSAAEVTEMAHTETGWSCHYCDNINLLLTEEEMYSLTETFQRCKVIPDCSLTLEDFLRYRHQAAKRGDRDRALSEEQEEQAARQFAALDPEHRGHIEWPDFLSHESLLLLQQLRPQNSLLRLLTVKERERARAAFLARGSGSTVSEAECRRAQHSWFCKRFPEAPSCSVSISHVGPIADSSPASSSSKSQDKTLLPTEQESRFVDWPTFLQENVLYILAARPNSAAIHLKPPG

One may read the Kd as the concentration at which binding is half-saturated. Regarding GINIP (from UniProt Q9UPV7), the Kd is 65 nM.
